This is an account of results in paper PMC5314774 (Nucleic Acids Research, 2016).

The target of test [1] is T1, LAGE3 (bacterial, 6xHIS-GST removed) (human, UniProt Q14657 1-143).
T1 sequence: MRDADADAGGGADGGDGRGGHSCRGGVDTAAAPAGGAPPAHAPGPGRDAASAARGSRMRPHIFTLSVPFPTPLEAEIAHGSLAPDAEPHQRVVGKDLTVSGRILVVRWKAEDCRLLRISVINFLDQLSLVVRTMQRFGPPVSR
In words: SEC. In general terms: Size exclusion chromatography separates by hydrodynamic size, large species first.

Test [2] deals with 4-subunit KEOPS complex (OSGEP, PRPK, TPRKB and LAGE3) (human, UniProt Q9NPF4;Q96S44;Q9Y3C4;Q14657). In words: SEC-MALS.

B1: C14ORF142 (bacterial, GST removed) (natural protein)
chain: MELLGEYVGQEGKPQKLRVSCEAPGDGDPFQGLLSGVAQMKDMVTELFDPLVQGEVQHRVAAAPDEDLDGDDEDDAEDENNIDNRTNFDGPSAKRPKTPS
Consider B1, for which the stoichiometry N (usually a count of units in the complex or per binding partner) in test [1] was found to be 1.

B2: C14ORF142 (insect cells, polycistronic KEOPS vector) (natural protein)
chain: B1 chain
For B2, the “stoichiometry N” value in test [2] was 1.
